No end group written: not given here.
Columns and labels:
[1] = biological target: human CRF receptor, subtype A, variant 1 (hCRF-RA1), encoded by clone hctCRFR (human) (UniProt P34998); experiment: binding to the receptor encoded by hctCRFR in COSM6 cell membranes (competitive radioreceptor assay of Example 3)
[2] = biological target: T1, mouse CRF receptor, subtype B, variant 1 (mCRF-RB1) (mouse, UniProt Q60748 35-411); experiment: competitive displacement of 125I-(Nle21,Tyr32)-ovine CRF, membranes of COSM6 cells transfected with pCRF-RB1
T1 construct: Full-length cDNA (431 amino acids) in pcDNA1, transiently expressed in COSM6 cells; also called pCRF-RB1
Description: (§1) The reaction was terminated by filtration through GF/C (Whatman) filters, prewetted with 1% BSA, 10 mM HEPES, pH 7.5. The filters were washed 4 times with 1 ml 0.1% BSA, 50 mM Tris, pH 7.5.
(§2) Using the methods described in Example 3, a radioreceptor assay was conducted. Approximately […] of pCRF-RB₁ plasmid DNA was transfected into COSM6 cells using the DEAE dextran method. […] In order to calculate a Kd, the displacement data were analyzed using the Ligand program of Munson and Rodbard (1980), Anal. Biochem., 107:220-239.

[3] = biological target: T1, mouse CRF receptor, subtype B, variant …; experiment: competitive displacement of 125I-(Nle21,Tyr32)-ovine CRF, membranes of COSM6 cells transfected with pCRF-RB1, Ligand program, six experiments
Description: as §1, §2

[4] = biological target: T2, human CRF receptor, subtype A, variant 1 (hCRF-RA1), encoded by clone hctCRFR (human, UniProt P34998 24-415); experiment: pharmacologic specificity of the receptor of SEQ ID NO:2
T2 construct: Transiently expressed in COSM6 cells; Clone hctCRFR (ATCC 75474) and clone CRF-R1 are both said to encode hCRF-RA1; also called CRF-R1; hctCRF receptor
T2 sequence: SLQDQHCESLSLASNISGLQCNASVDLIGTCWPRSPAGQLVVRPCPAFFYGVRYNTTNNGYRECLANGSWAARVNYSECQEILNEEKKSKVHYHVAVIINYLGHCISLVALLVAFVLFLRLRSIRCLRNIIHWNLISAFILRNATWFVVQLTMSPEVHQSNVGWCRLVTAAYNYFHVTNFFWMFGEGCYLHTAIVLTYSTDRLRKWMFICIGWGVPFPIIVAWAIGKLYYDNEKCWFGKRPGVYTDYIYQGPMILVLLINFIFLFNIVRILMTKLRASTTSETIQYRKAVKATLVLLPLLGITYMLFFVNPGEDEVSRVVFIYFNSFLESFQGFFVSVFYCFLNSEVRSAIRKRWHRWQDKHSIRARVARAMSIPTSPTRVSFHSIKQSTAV

T1 sequence (Q60748 other isoform, or with tags, fused parts or gaps mutant limits assumed): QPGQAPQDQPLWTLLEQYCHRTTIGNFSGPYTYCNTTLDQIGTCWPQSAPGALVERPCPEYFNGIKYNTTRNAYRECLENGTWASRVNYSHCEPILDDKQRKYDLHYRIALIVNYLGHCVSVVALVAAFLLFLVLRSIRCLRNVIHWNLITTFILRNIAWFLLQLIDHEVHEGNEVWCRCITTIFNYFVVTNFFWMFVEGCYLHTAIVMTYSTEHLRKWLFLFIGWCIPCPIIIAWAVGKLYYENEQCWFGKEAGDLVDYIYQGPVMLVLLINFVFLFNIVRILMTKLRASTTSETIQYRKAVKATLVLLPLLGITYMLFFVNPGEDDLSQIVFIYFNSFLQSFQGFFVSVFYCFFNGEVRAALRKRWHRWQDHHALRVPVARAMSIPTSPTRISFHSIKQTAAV

CRF antagonist a-helical (9-41) CRF (peptide)
Kd [1]: 13 nM

B1: vasoactive intestinal peptide (VIP) (peptide, UniProt P01282 125-152, looked up)
peptide: HSDAVFTDNYTRLRKQMAVKKYLNSILN
notes: also called vasoactive intestinal polypeptide
binding result [2]: no binding

B2: rat/human corticotropin-releasing factor (r/h CRF) (ligand, UniProt P06850 154-194, looked up)
peptide: SEEPPISLDLTFHLLREVLEMARAEQLAQQAHSNRKLMEII
notes: mature; The peptide in the assay is the mature 41-residue CRF; also called human/rat CRF; native r/h CRF
Kd [3]: ~1.3 nM

QGPPISIDLSLELLRKMIEIEKQEKEKQQAANNRLLLDTI (ligand, UniProt P01144 1-40, looked up) [sauvagine]
binding result [4]: binds

B3: hGRF(1-40)OH (peptide, UniProt P01286 32-71, looked up)
peptide: YADAIFTNSYRKVLGQLSARKLLQDIMSRQQGESNQERGA-OH
notes: range 1-40; also called growth hormone releasing factor
binding result [2]: no binding

Reference: patent US20040039173A1 (SALK INSTITUTE FOR BIOLOGICAL STUDIES, published 2004)
